Drawing on patent US20230125173A1, this text covers IC50, inhibition of TGFβ1 (0.1nM stock) activity in HEK-Blue TGFβ reporter cells, QUANTI-Blue OD 620-655 nM and EC50, 32Dβ cell proliferation (WST1, absorbance for two substances.

The target of test [1] is TGFβ1 (R&D systems) (UniProt P01137). The experiment in a line: cell-based or functional assay.
For test [2], the target named is IL2Rβ and common γ chain on 32Dβ cells. In words: cell-based or functional assay.

Sequence of UniProt P01137 (P01137 279-390 limits assumed): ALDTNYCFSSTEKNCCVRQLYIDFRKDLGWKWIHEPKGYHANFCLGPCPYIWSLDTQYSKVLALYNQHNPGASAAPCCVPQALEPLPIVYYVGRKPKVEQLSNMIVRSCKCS

As for TGFR-Fc (R&D Systems) (Fc fusion), the IC50, inhibition of TGFβ1 (0.1nM stock) activity in HEK-Blue TGFβ reporter cells, QUANTI-Blue OD 620-655 nM in test [1] was 0.461 nM.
In turn, “recombinant IL-15 (from UniProt P40933 49-162) (ligand)” registered an EC50, 32Dβ cell proliferation (WST1, absorbance at 450 nM) in test [2] of 0.0106 nM.
